According to paper PMC6126765 (Proceedings of the National Academy of Sciences of the …, 2018):

Target: the molecule itself
Test: cryo-EM structure

B1: MBP-tagged truncated mouse TRPM7 (amino acids 1 to 1280) (domain or fragment)
chain: MSQKSWIESTLTKRECVYIIPSSKDPHRCLPGCQICQQLVRCFCGRLVKQHACFTASLAMKYSDVKLGEHFNQAIEEWSVEKHTEQSPTDAYGVINFQGGSHSYRAKYVRLSYDTKPEIILQLLLKEWQMELPKLVISVHGGMQKFELHPRIKQLLGKGLIKAAVTTGAWILTGGVNTGVAKHVGDALKEHASRSSRKICTIGIAPWGVIENRNDLVGRDVVAPYQTLLNPLSKLNVLNNLHSHFILVDDGTVGKYGAEVRLRRELEKTINQQRIHARIGQGVPVVALIFEGGPNVILTVLEYLQESPPVPVVVCEGTGRAADLLAYIHKQTEEGGNLPDAAEPDIISTIKKTFNFGQSEAVHLFQTMMECMKKKELITVFHIGSEDHQDIDVAILTALLKGTNASAFDQLILTLAWDRVDIAKNHVFVYGQQWLVGSLEQAMLDALVMDRVSFVKLLIENGVSMHKFLTIPRLEELYNTKQGPTNPMLFHLIRDVKQGNLPPGYKITLIDIGLVIEYLMGGTYRCTYTRKRFRLIYNSLGGNNRRSGRNTSSSTPQLRKSHETFGNRADKKEKMRHNHFIKTAQPYRPKMDASMEEGKKKRTKDEIVDIDDPETKRFPYPLNELLIWACLMKRQVMARFLWQHGEESMAKALVACKIYRSMAYEAKQSDLVDDTSEELKQYSNDFGQLAVELLEQSFRQDETMAMKLLTYELKNWSNSTCLKLAVSSRLRPFVAHTCTQMLLSDMWMGRLNMRKNSWYKVILSILVPPAILMLEYKTKAEMSHIPQSQDAHQMTMEDSENNFHNITEEIPMEVFKEVKILDSSDGKNEMEIHIKSKKLPITRKFYAFYHAPIVKFWFNTLAYLGFLMLYTFVVLVKMEQLPSVQEWIVIAYIFTYAIEKVREVFMSEAGKISQKIKVWFSDYFNVSDTIAIISFFVGFGLRFGAKWNYINAYDNHVFVAGRLIYCLNIIFWYVRLLDFLAVNQQAGPYVMMIGKMVANMFYIVVIMALVLLSFGVPRKAILYPHEEPSWSLAKDIVFHPYWMIFGEVYAYEIDVCANDSTLPTICGPGTWLTPFLQAVYLFVQYIIMVNLLIAFFNNVYLQVKAISNIVWKYQRYHFIMAYHEKPVLPPPLIILSHIVSLFCCVCKRRKKDKTSDGPKLFLTEEDQKKLHDFEEQCVEMYFDEKDDKFNSGSEERIRVTFERVEQMSIQIKEVGDRVNYIKRSLQSLDSQIGHLQDLSALTVDTLKTLTAQKASEASKVHNEITRELSISKHLAQNLID
- stoichiometry N: 4
